The target of assay [1] is T1, Bqt4_(2–140), N-terminal domain of Bqt4 (S. pombe, UniProt O60158 2-140).
T1 chain: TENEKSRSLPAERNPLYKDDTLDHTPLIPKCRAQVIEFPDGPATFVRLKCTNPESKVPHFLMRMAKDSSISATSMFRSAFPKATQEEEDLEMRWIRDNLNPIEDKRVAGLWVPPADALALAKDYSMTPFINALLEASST
The assay can be described thus: ITC. On the technique in general: ITC needs no label: the signal is the heat of the interaction.

Assay [2] concerns the target T2, Bqt4_(2–180) (S. pombe, UniProt O60158 2-180).
T2 chain: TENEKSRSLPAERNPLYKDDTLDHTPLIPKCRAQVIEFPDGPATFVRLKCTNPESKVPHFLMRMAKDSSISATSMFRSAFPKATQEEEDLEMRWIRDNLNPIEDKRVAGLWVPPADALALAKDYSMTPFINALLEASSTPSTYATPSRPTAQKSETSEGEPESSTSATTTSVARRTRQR
Nature of the assay: ITC.

Assay [3] addresses T3, Bqt4NTD^F61A (S. pombe, UniProt O60158 2-140, F61A).
T3 sequence: T1 chain with F60A
The assay can be described thus: ITC.

The target of the next assay is T4, Bqt4NTD^R48E (S. pombe, UniProt O60158 2-140, R48E).
T4 sequence: T1 chain with R47E
The assay can be described thus: ITC.

The target of assay [4] is T5, Bqt4_(2–140), N-terminal domain of Bqt4 (S. pombe, UniProt O60158 2-140).
T5 construct: Bqt4, S. pombe inner nuclear membrane protein, residues 2-140; also called Bqt4NTD; Bqt4NTD^WT; source: E. coli BL21(DE3), purified (Ni-NTA, on-beads Ulp1 digestion, Superdex200); not shown: His6, N-terminal, cleaved; SUMO, N-terminal, cleaved
T5 sequence (looked up): T1 chain
The assay can be described thus: fluorescence polarisation; competition: FITC-labeled Lem2BBM pre-mixed with Bqt4NTD (4°C, 1 h), unlabeled peptides from 10 nM to 200 μM added; 25 mM Tris–HCl pH 8.0, 150 mM NaCl, 10% glycerol; 25°C. Conditions: both partners purified. In general terms: In fluorescence polarisation assays a small probe gives low polarisation when free and higher when bound to something large.

The target in assay [5] is T5, Bqt4_(2–140), N-terminal domain of Bqt4. The assay can be described thus: ITC; ITC200; peptide (Rap1 479-527 at 1000–1500 μM) titrated into Bqt4 2-140 (100–150 μM), 20°C, 20 mM Tris–HCl pH 8.0, 150 mM NaCl; one binding site model; two independent experiments. Particulars: both partners purified.
Assay [6] deals with T6, Bqt4_(2–180) (S. pombe, UniProt O60158 2-180).
T6 construct: Bqt4, S. pombe, residues 2-180; also called N-terminal region of Bqt4; source: E. coli BL21(DE3), purified (Ni-NTA, on-beads Ulp1 digestion, Superdex200); not shown: His6, N-terminal, cleaved; SUMO, N-terminal, cleaved
T6 sequence (looked up): T2 chain
The description is as above. Conditions: both partners purified.

Assay [7] concerns the target T1, Bqt4_(2–140), N-terminal domain of Bqt4. Nature of the assay: ITC.
Assay [8] shares this target. The assay can be described thus: ITC.
The target in assay [9] is T3, Bqt4NTD^F61A. Nature of the assay: ITC. This is another data set of the same source.
In the next assay the target is T7, Bqt4NTD R33A (S. pombe, UniProt O60158 2-140, R33A).
T7 sequence: T1 chain with R32A
Nature of the assay: ITC.

A further assay concerns the target T8, Bqt4NTD D90R (S. pombe, UniProt O60158 2-140, D90 into arginine).
T8 sequence: T1 chain with D89R
Nature of the assay: ITC.

Assay [10] concerns the target T1, Bqt4_(2–140), N-terminal domain of Bqt4. The assay can be described thus: ITC.
For assay [11] the target is unchanged. The assay can be described thus: FP; competition with FITC-Lem2BBM.

Where a chain is given by its changes, count along the chain named. Numbers in names are those of the source. Read-outs that look alike come from different tables or passages of the source. Some results are limits rather than exact numbers.

B1: Rap1_(468-541) (protein)
chain: DNIFVKPGEDLEIPLLSDYSDSENISEKSSDDEEAFEKQVTSSYSSPIKVKSQGKSSKGSSGLDVREHEGSDDD
A word on the Kd: it is a measure of binding affinity in units of concentration. A low value points to higher affinity. With B1, the Kd was 5.7 µM in assay [1] and 7.9 µM in the assay with Bqt4_(2–180) [2].

B2: Lem2_(261–279) (peptide, UniProt Q10109 261-279, looked up)
chain: SAEEDDELFQNYVLQQTRK
notes: 3C cleavage leaves extra N-terminal residues; also called Lem2BBM; source: E. coli BL21(DE3), purified (glutathione-Sepharose 4B, on-beads 3C digestion, Superdex75); not shown: GST, N-terminal, cleaved
A word on the IC50: it is the concentration that gives 50% inhibition. The low end stands for higher potency, the high end for lower potency. In the case of B2, the Kd in the assay with Bqt4NTD^F61A [3] was 46 µM; with Bqt4NTD^R48E, 3.2 µM; in assay [5], approximately 0.53 µM. Also, the IC50 in assay [4] is 1.2 µM.

B3: Rap1_(468-527) (protein)
chain: DNIFVKPGEDLEIPLLSDYSDSENISEKSSDDEEAFEKQVTSSYSSPIKVKSQGKSSKGS
B3: the Kd is 5.8 µM in assay [1] and 8.7 µM with Bqt4_(2–180) [2].

B4: Rap1_(403-541) (protein)
chain: DSMYRSISNPLHLVDSQHLSPLNRKTHFNNPIGQPQFTCLDDHEKTLRETSFRSLDDMSLRKSNSDNIFVKPGEDLEIPLLSDYSDSENISEKSSDDEEAFEKQVTSSYSSPIKVKSQGKSSKGSSGLDVREHEGSDDD
In the case of B4, the Kd in [1] turned out to be 4.8 µM; with Bqt4_(2–180) [2], 5.4 µM.

B5: Rap1_(490–513), Bqt4-binding motif of Rap1 (peptide, UniProt Q96TL7 490-513, looked up)
chain: ENISEKSSDDEEAFEKQVTSSYSS
notes: 3C cleavage leaves extra N-terminal residues; also called Rap1BBM; source: E. coli BL21(DE3), purified (glutathione-Sepharose 4B, on-beads 3C digestion, Superdex75); not shown: GST, N-terminal, cleaved
B5: the Kd in assay [1] was 11.4 µM; in the assay with Bqt4_(2–180) [2], 11 µM. Also, the binding result (with Bqt4_(2–180) [6]; in assay [5]) was “binds” each time.

B6: Rap1_(490-541) (protein)
chain: ENISEKSSDDEEAFEKQVTSSYSSPIKVKSQGKSSKGSSGLDVREHEGSDDD
As for B6, the Kd in [1] is 8.3 µM; in the assay with Bqt4_(2–180) [2], 9.7 µM.

For KSSDDEEAFEKQVTSSYSSPIKVKSQGKSSKGS [Rap1_(495-527)], the Kd in [1] was found to be 14.7 µM; with Bqt4_(2–180) [2], 15.3 µM.

In assay [7], SESSSPYSEVDSAEEDDELFQNYVLQQTRK [Lem2_(250-279)] returned a Kd of 0.34 µM.

B7: Rap1_(479–527) (domain or fragment, S. pombe, UniProt Q96TL7 479-527, looked up)
chain: EIPLLSDYSDSENISEKSSDDEEAFEKQVTSSYSSPIKVKSQGKSSKGS
notes: also called Rap1^WT; wild-type Rap1; source: E. coli BL21(DE3), purified (glutathione-Sepharose 4B, on-beads 3C digestion, Superdex75); not shown: GST, N-terminal, cleaved
In assay [4], B7 had an IC50 of 50.9 µM. For the same molecule, the Kd was determined as 11.4 µM in assay [8], 909 µM with Bqt4NTD^F61A [9], 12.3 µM with Bqt4NTD R33A and 14.4 µM with Bqt4NTD D90R. Besides, the “fold by which the Bqt4-Lem2 interaction is stronger than this pair” value in assay [5] was determined as 20 fold.

In turn, EIPLLSDYSDSENISEKAADDEEAFEKQVTSSYSSPIKVKSQGKSSKGS [Rap1_(479-527) S496A/S497A] registered a Kd in assay [10] of 8 µM.

In turn, EIPLLSDYSDSENISEKSADDEEAFEKQVTSSYSSPIKVKSQGKSSKGS [Rap1_(479-527) S497A] came in with a Kd in assay [10] of 9.5 µM.

In turn, EIPLLSDYSDSENISEKSSDDEEAFEKQATSSYSSPIKVKSQGKSSKGS (domain or fragment) [Rap1_(479–527) V507A] displayed a Kd in assay [8] of 138 µM.

As to EIPLLSDYSDSENISEKSSDDEEAFEKQVTSSYSAPIKVKSQGKSSKGS [Rap1_(479-527) S513A], binding in [10] was characterised by a dissociation constant (Kd) of 7.9 µM.

Take EIPLLSDYSDSENISEKSSDDEEAFEKQVTSSYESPIKVKSQGKSSKGS (domain or fragment) [Rap1_(479–527) S512E]: the Kd in [10] was 27.2 µM.

Molecule EIPLLSDYSDSENISEKASDDEEAFEKQVTSSYSSPIKVKSQGKSSKGS [Rap1_(479-527) S496A] yielded a Kd in assay [10] of 10.6 µM.

In turn, EIPLLSDYSDSENISEKSSDDEEAAEKQVTSSYSSPIKVKSQGKSSKGS (domain or fragment) [Rap1_(479–527) F503A] returned a Kd in assay [8] of 106 µM.

EIPLLSDYSDSENISEKSSDDEEAFEKQVTSSYASPIKVKSQGKSSKGS [Rap1_(479-527) S512A] came in with a Kd in [10] of 7.1 µM.

Turning to EIPLLSDYSDSENISEKSSDDEEAFEKQVTSSYAAPIKVKSQGKSSKGS [Rap1_(479-527) S512A/S513A], the Kd in assay [10] came to 7.3 µM.

EIPLLSDYSDSENISEKSSDAAEAFEKQVTSSYSSPIKVKSQGKSSKGS (domain or fragment) [Rap1_(479–527) D499A/E500A] showed a Kd in [8] of 862 µM.

B8: Rap1_(479–527) (S496E/S497E) (domain or fragment, S. pombe, UniProt Q96TL7 479-527, looked up)
chain: B7 chain with S18E, S19E
notes: phosphomimetic; also called Rap1^S496E/S497E; source: E. coli BL21(DE3), purified (glutathione-Sepharose 4B, on-beads 3C digestion, Superdex75); not shown: GST, N-terminal, cleaved
In the case of B8, the IC50 in assay [11] was 6.8 µM. In assay [10], this molecule showed a dissociation constant (Kd) of 0.9 µM. Also, the “fold increase in binding affinity against wild-type Rap1” value in assay [5] worked out at 10 fold.

B9: Rap1_(479–527) S496E (domain or fragment, S. pombe, UniProt Q96TL7 479-527, looked up)
chain: B7 chain with S18E
notes: phosphomimetic; also called Rap1^S496E; source: E. coli BL21(DE3), purified (glutathione-Sepharose 4B, on-beads 3C digestion, Superdex75); not shown: GST, N-terminal, cleaved
Molecule B9 yielded a Kd in assay [10] of 2.4 µM. Further, in [5], the binding result is listed as “binds”.

B10: Rap1_(479–527) S512E/S513E (domain or fragment, S. pombe, UniProt Q96TL7 479-527, looked up)
chain: B7 chain with S34E, S35E
notes: phosphomimetic; also called Rap1^S512E/S513E; source: E. coli BL21(DE3), purified (glutathione-Sepharose 4B, on-beads 3C digestion, Superdex75); not shown: GST, N-terminal, cleaved
For B10, the IC50 in [11] is more than 200 µM. The affinity in [10], expressed as Kd, was 115 µM. In addition, the “fold decrease in binding affinity against wild-type Rap1” value in assay [5] is 10 fold.

B11: Rap1_(220-606) (protein)
chain: SVSKSENKALVNNKRYSDSYFYFSKMRRISIDVDYVDEDLNLINAYLSQFGKKRSLNELCALLSRRFSNRHTFSEWRALFMHFFPFINSEGVDPAILSDRETSAMLDETSDNEVADIDDQMIERKYLFSASEPNTVKSTNRLIFSERKAYAADDSIDNTPSKVPIVNSLSDPRTNRPFFYSNPDSMYRSISNPLHLVDSQHLSPLNRKTHFNNPIGQPQFTCLDDHEKTLRETSFRSLDDMSLRKSNSDNIFVKPGEDLEIPLLSDYSDSENISEKSSDDEEAFEKQVTSSYSSPIKVKSQGKSSKGSSGLDVREHEGSDDDAEVFVDRSPESFGATKVAHTSLEGNAASHKKVEENMQQPVTKKQKKYRMVNEEAHTGPTIIIPSD
With B11, the figures for the Kd (in [1]; with Bqt4_(2–180) [2]) were 13.7 µM and 12.9 µM, respectively.

B12: Rap1_(468-519) (protein)
chain: DNIFVKPGEDLEIPLLSDYSDSENISEKSSDDEEAFEKQVTSSYSSPIKVKS
In the case of B12, the Kd in assay [1] was found to be 6.6 µM; with Bqt4_(2–180) [2], 10.8 µM.

B13: Sad1 (residues 88–101) (peptide, UniProt Q09825 88-101, looked up)
chain: SDNEEFENVVKNGH
notes: Sad1, S. pombe spindle pole body-associated protein, residues 88-101 (14 residues); 3C cleavage leaves extra N-terminal residues; also called Sad1BBM; Sad1_(88–101); source: E. coli BL21(DE3), purified (glutathione-Sepharose 4B, on-beads 3C digestion, Superdex75); not shown: GST, N-terminal, cleaved
Take B13: the Kd was found to be 262 µM with Bqt4NTD^R48E and 3.7 µM in assay [5].

These data come from paper PMC6379675, “Structural insights into chromosome attachment to the nuclear envelope by an inner nuclear membrane protein Bqt4 in fission yeast” (Nucleic Acids Research, 2018).
